# Experimental data published in patent EP0485563B1, “POLYETHER-SUBSTITUTED TUMOR AGENTS” (Deutsches Krebsforschungszentrum Stiftung des öffentlichen …, priority 1990, dated 1991).
# Tests used:
# [1] = test system: experimentelle Tumoren und Xenotransplantate, human; assay: Accumulation (concentration) of radiolabelled agents in experimental tumours and human xenografts; assay type: in vivo, Ratte; Nacktmaus; settings: 300 µC = 11,1 MBq administered; 1a and 1c in all tumours/xenografts of the 2nd table, compound of Beispiel 2 only in Walker Carcinosarcom, Osteosarcom, Ovarialcarcinom (O-342)
# From the text: Schließlich wurden für CT-Untersuchungen die folgenden Verbindungen gemäß Beispiel 2 hergestellt: • 4a) Tri-jod-phenol-CMPEG • 4b) Tri-jod-benzoesäure-AMPEG • 4c) Iodoxaminsäure-(AMPEG)₂ Die Anreicherung (Konzentrierung) dieser Mittel wurde an folgenden experimentellen Tumoren und an folgenden Tiermodellen geprüft:
# Alle diese experimentellen Tumoren und Xenotransplantate wurden mit den Verbindungen a und c gemäß Beispiel 1 (also 1a und 1c) und drei davon, nämlich das Walker Carcinosarcom, das Osteosarcom und das Ovarialcarcinom (O-342) auch mit dem Diphosphonat gemäß Beispiel 2 untersucht.
# (§1) Bei allen diesen Anwendungsversuchen wurden immer 300 µC = 11,1 MBq verabreicht. ES zeigten sich mit den eingesetzten Mitteln, nämlich 1a und 1c und die Verbindung aus Beispiel 2 eine Konzentration von mindestens 30 % des Mittels an der gewünschten Stelle, also am Tumor. Die beigefügte Fig. 4 zeigt das Bild einer BDIX-Rattemit Ovarialcarcinom 42 h nach Injektion, die mit ¹³¹J-HOPAD-CMPEG, also ¹³¹J-Hydroxyphenyl-1-aminomethan-1,1-diphosphonat- Cyanurchlorid aktiviertes Polyethylenglykol (n = ca. 100 bis 110) in einer Menge von 300 µC behandelt war. Das Bild zeigt, daß ganz unten, im Tumor ca. 30 +/- 2 % des Mittels konzentriert sind, während in der Mitte die Leber ca. 10 % zeigt und die Schilddrüse, die oberhalb der Leber sichtbar ist, weit weniger als 2 % des Mittels aufgenommen hat. Diese %-Angaben beziehen sich auf die Gesamtmenge an die mit radiojadmarkierten Mittel im Gesamtkörper der Ratte.
# [2] = test system: Ovarialcarcinom; assay: Whole-body distribution of radioiodine-labelled agent in tumour-bearing rat (Fig. 4, Fig. 5); assay type: in vivo, BD IX Ratte
# Description: as §1
# Die beigefügte Fig. 5 zeigt die Messung einer mit ¹³¹I TOP-(CMPEG)4 behandelten BD IX Ratte (auch hier Ovarialcarcinom). Es zeigt sich ein ähnliches Ergebnis wie das von Fig. 4.
# Von der gesamten Körperaktivität an radioaktivem Jod finden sich nach 150 h etwa 23 % im Tumor, etwa 12 % in der Leber, etwa 5 % im Blut und etwa 3 - 4 % jeweils in den Muskeln und in der Schilddrüse. Der Rest ist natürlich, wie auch bei der Aufnahme von Fig 4, über den restlichen Körper verteilt.
# [3] = Photodynamic activity of the photosensitiser
# [4] = BDIX rat with Ovarialcarcinom, 42 h after injection, 300 µC, % of total labelled agent in whole body
# [5] = BD IX rat, Ovarialcarcinom, after 150 h, % of total body activity of radioactive iodine
substance,measurement,setting,value
¹³¹-I-Hydroxyphenylaminomethandiphosphonat- (CMPEG)₂ [Verbindung aus Beispiel 2],"Konzentration des Mittels an der gewünschten Stelle, also am Tumor",[1],≥ 30%
same,Leber,[2]; [4],ca. 10%
same,Schilddrüse,[2]; [4],< 2%
same,im Tumor konzentriert,[2]; [4],ca. 30 +/- 2%
Tetra-(4 Amino-phenoxy)-phthalocyanin -CMPEG [TAPPC-CMPEG],"""bleaching""",[3],"kaum ""bleaching"" festzustellen"
same,fotodynamische Aktivität,[3],sehr hohe fotodynamische Aktivität bis über 720 nm
¹¹¹-In-Tetra-(hydroxyphenoxy)-phthalocyanin-(CMPEG)₄ [1c],"Konzentration des Mittels an der gewünschten Stelle, also am Tumor",[1],≥ 30%
¹³¹I-Tetra(hydroxyphenyl)-porphin-(CMPEG)₄ [1a],"Konzentration des Mittels an der gewünschten Stelle, also am Tumor",[1],≥ 30%
same,im Blut,[2]; [5],~5%
same,im Tumor,[2]; [5],~23%
same,in den Muskeln,[2]; [5],3 - 4%
same,in der Leber,[2]; [5],~12%
same,in der Schilddrüse,[2]; [5],3 - 4%
